Results published in publication PMC4622058.

Molecular target: Human FcγRIIIa V158 (human)
Test: AlphaScreen or HTRF

Substance	fold difference in binding against IgG1	fold decrease in binding against IgG1
anti-CD142 mAb variant 2h-AEA (IgG1 with IgG2 lower hinge, K326A/I332E/E333A) (antibody)	< 2 fold	
anti-CD142 mAb variant 2h-DAA (IgG1 with IgG2 lower hinge, S239D/K326A/E333A) (antibody)	< 2 fold	
anti-CD142 mAb with human IgG2 constant region (antibody)		> 30 fold
